Measured values taken from US20120177571A1, “PANCREATIC ENDOCRINE CELL INDICATING AGENT AND UTILIZATION OF SAME” (RIKEN, priority 2009, published 2012).

Test system: pancreatic beta cells
Settings: in vivo, 70 mg/kg
Experimental: 70 mg of Streptozotocin (STZ), which is selectively toxic to the pancreatic beta cells, was intraperitoneally administered to a rat per kilogram of the weight of the rat. Thus, a diabetic rat whose pancreatic beta cells were damaged was prepared. Next, ^68Ga-DOTA-octreotide (PET probe) was intravenously administered to the model rat in accordance with the method in Example 1. Next, in accordance with the method in Example 1, the abdomen of the model rat was scanned with the use of a PET and image reconstruction was performed. […] Further, as in Example 1, organs etc. were removed from the model rat after the scan, and radioactivity in each of the organs etc. was quantified.

C[C@@H](O)[C@@H]1NC(=O)[C@H](CCCCN)NC(=O)[C@@H](Cc2c[nH]c3ccccc23)NC(=O)[C@H](Cc2ccccc2)NC(=O)[C@@H](NC(=O)[C@@H](Cc2ccccc2)NC(=O)CN2CCN(CC(=O)O)CCN(CC(=O)O)CCN(CC(=O)O)CC2)CSSC[C@@H](C(=O)N[C@H](CO)[C@@H](C)O)NC1=O [^68Ga-DOTA-octreotide, metal not drawn]
accumulation of the PET probe in kidney and liver (PET image), diabetic model rat: observed
